Measurements: paper PMC6987454
Several values for one entry are separate records, joined by “and”; a condition that tells them apart may be missing. Equal values may be shown once. One block for each substance: values may come before it.

Assays:
[1] = molecular target: AtCGE1 (Arabidopsis chloroplast GrpE homologue 1), mature region, 6xHis-tagged (Arabidopsis); assay: cross-linking; 5 uM purified protein in common buffer [25 mM Hepes-KOH (pH 7.8), 5 mM MgCl2, 5 mM DTT] crosslinked with glutaraldehyde at 0.05, 0.1 and 0.2% for 10 min; 4-12% SDS-PAGE and CBR staining
Chain of AtCGE1 (Arabidopsis chloroplast GrpE homologue 1), mature region, 6xHis-tagged (Arabidopsis) (main, as listed by the source): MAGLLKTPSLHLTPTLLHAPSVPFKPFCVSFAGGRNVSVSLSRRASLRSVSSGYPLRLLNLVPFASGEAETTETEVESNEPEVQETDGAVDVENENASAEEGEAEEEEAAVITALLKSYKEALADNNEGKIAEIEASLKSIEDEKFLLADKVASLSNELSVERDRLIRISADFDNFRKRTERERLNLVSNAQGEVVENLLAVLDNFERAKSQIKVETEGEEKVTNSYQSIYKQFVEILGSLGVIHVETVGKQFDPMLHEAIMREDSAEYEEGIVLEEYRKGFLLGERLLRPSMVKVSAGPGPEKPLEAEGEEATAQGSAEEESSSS

[2] = molecular target: AtCGE2 (Arabidopsis chloroplast GrpE homologue 2), mature region, 6xHis-tagged (Arabidopsis); assay: as above
[3] = molecular target: AtCGE1 (Arabidopsis chloroplast GrpE homologue 1), mature region, 6xHis-tagged (Arabidopsis); assay: pull-down; AtCGE1-6xHis and tag-free AtCGE2 co-expressed in E. coli BL21(DE3); crude protein extract bound to Talon beads, stringent wash, elution; bands seen on PAGE

stoichiometry N [1]: 2 and 4
Substance: AtCGE1 (Arabidopsis chloroplast GrpE homologue 1), mature region, 6xHis-tagged (natural protein)

stoichiometry N [2]: 2 and 4
Substance: AtCGE2 (Arabidopsis chloroplast GrpE homologue 2), mature region, 6xHis-tagged (natural protein)

stoichiometry N [3]: 1 molar ratio
Substance: AtCGE2 (Arabidopsis chloroplast GrpE homologue 2), mature region, tag-free, co-expressed with AtCGE1-6xHis (natural protein)
